According to paper PMC4844702, “Selective inhibition of the kinase DYRK1A by targeting its folding process” (Nature Communications, 2016):

Molecular target: CDC37 (UniProt Q16543)
Experiment: anti-FLAG plate capture, CDC37-nanoKAZ luminescence
Details: reference: wild type

Row | Substance | fold change (sites S97) | other results
1 | DYRK1A (from UniProt Q13627) K188R kinase-dead | 54 | –
2 | DYRK1A (from UniProt Q13627) Y321F | – | fold change (sites Y321): 5.2
3 | DYRK1A (from UniProt Q13627) S97A | 2.2 | –
4 | DYRK1A (from UniProt Q13627) Y319F/Y321F | – | fold change (sites Y319,Y321): 6.2
